# B1: novel phytase derived from Aspergillus niger SK57, SEQ ID NO:1 (Aspergillus niger CBS 513.88) (protein)
# chain: SRNQSTCDTVDQGYQCFSETSHLWGQYAPFFSLANKSAISPDVPAGCHVTFAQVLSRHGARYPTDSKGKKYSALIEEIQQNATTFEGKYAFLKTYNYSLGADDLTPFGEQELVNSGVKFYQRYESLTRNIVPFIRSSGSSRVIASGNKFIEGFQSTKLKDPRAQPGQSSPKIDVVISEASTSNNTLDPGTCTVFEDSELADDIEANFTATFVPSIRQRLENDLSGVSLTDTEVTYLMDMCSFDTISTSTVDTKLSPFCDLFTHEEWINYDYLQSLNKYYGHGAGNPLGPTQGVGYANELIARLTHSPVHDDTSSNHTLDSNPATFPLNSTLYADFSHDNGIISILFALGLYNGTKPLSSTTAENITQTDGFSSAWTVPFASRMYVEMMQCQSEQEPLVRVLVNDRVVPLHGCPVDALGRCTRDSFVKGLSFARSGGDWGECFA
# B2: novel phytase (SK57 gene, pANPHY1) derived from Aspergillus niger MH-PA1 (Aspergillus niger CBS 513.88) (protein)
# chain: SRNQSTCDTVDQGYQCFSETSHLWGQYAPFFSLANKSAISPDVPAGCHVTFAQVLSRHGARYPTDSKGKKYSALIEEIQQNATTFEGKYAFLKTYNYSLGADDLTPFGEQELVNSGVKFYQRYESLTRNIVPFIRSSGSSRVIASGNKFIEGFQSTKLKDPRAQPGQSSPKIDVVISEASTSNNTLDPGTCTVFEDSELADDIEANFTATFVPSIRQRLENDLSGVSLTDTEVTYLMDMCSFDTISTSTVDTKLSPFCDLFTHEEWINYDYLQSLNKYYGHGAGNPLGPTQGVGYANELIARLTHSPVHDDTSSNHTLDSNPATFPLNSTLYADFSHDNGIISILFALGLYNGTKPLSSTTAENITQTDGFSSAWTVPFASRMYVEMMQCQSEQEPLVRVLVNDRVVPLHGCPVDALGRCTRDSFVKGLSFARSGGDWGECFA
# notes: secreted, mature, purified
# B3: novel phytase (SK57 gene, pANPHY1) derived from Aspergillus nidulans M-PA1 (Aspergillus niger CBS 513.88) (protein)
# chain: SRNQSTCDTVDQGYQCFSETSHLWGQYAPFFSLANKSAISPDVPAGCHVTFAQVLSRHGARYPTDSKGKKYSALIEEIQQNATTFEGKYAFLKTYNYSLGADDLTPFGEQELVNSGVKFYQRYESLTRNIVPFIRSSGSSRVIASGNKFIEGFQSTKLKDPRAQPGQSSPKIDVVISEASTSNNTLDPGTCTVFEDSELADDIEANFTATFVPSIRQRLENDLSGVSLTDTEVTYLMDMCSFDTISTSTVDTKLSPFCDLFTHEEWINYDYLQSLNKYYGHGAGNPLGPTQGVGYANELIARLTHSPVHDDTSSNHTLDSNPATFPLNSTLYADFSHDNGIISILFALGLYNGTKPLSSTTAENITQTDGFSSAWTVPFASRMYVEMMQCQSEQEPLVRVLVNDRVVPLHGCPVDALGRCTRDSFVKGLSFARSGGDWGECFA
# notes: secreted, mature, purified, glycosylated
# B4: novel phytase from Aspergillus niger SK57: Phytase purified from wheat bran culture of Aspergillus niger SK57 (FERM BP-5473); amino acid sequence SEQ ID NO:1 (protein)
# chain: SRNQSTCDTVDQGYQCFSETSHLWGQYAPFFSLANKSAISPDVPAGCHVTFAQVLSRHGARYPTDSKGKKYSALIEEIQQNATTFEGKYAFLKTYNYSLGADDLTPFGEQELVNSGVKFYQRYESLTRNIVPFIRSSGSSRVIASGNKFIEGFQSTKLKDPRAQPGQSSPKIDVVISEASTSNNTLDPGTCTVFEDSELADDIEANFTATFVPSIRQRLENDLSGVSLTDTEVTYLMDMCSFDTISTSTVDTKLSPFCDLFTHEEWINYDYLQSLNKYYGHGAGNPLGPTQGVGYANELIARLTHSPVHDDTSSNHTLDSNPATFPLNSTLYADFSHDNGIISILFALGLYNGTKPLSSTTAENITQTDGFSSAWTVPFASRMYVEMMQCQSEQEPLVRVLVNDRVVPLHGCPVDALGRCTRDSFVKGLSFARSGGDWGECFA
# B5: novel phytase (SK57 gene, pANPHY1) derived from Aspergillus oryzae MO-PG3 (Aspergillus niger CBS 513.88) (protein)
# chain: SRNQSTCDTVDQGYQCFSETSHLWGQYAPFFSLANKSAISPDVPAGCHVTFAQVLSRHGARYPTDSKGKKYSALIEEIQQNATTFEGKYAFLKTYNYSLGADDLTPFGEQELVNSGVKFYQRYESLTRNIVPFIRSSGSSRVIASGNKFIEGFQSTKLKDPRAQPGQSSPKIDVVISEASTSNNTLDPGTCTVFEDSELADDIEANFTATFVPSIRQRLENDLSGVSLTDTEVTYLMDMCSFDTISTSTVDTKLSPFCDLFTHEEWINYDYLQSLNKYYGHGAGNPLGPTQGVGYANELIARLTHSPVHDDTSSNHTLDSNPATFPLNSTLYADFSHDNGIISILFALGLYNGTKPLSSTTAENITQTDGFSSAWTVPFASRMYVEMMQCQSEQEPLVRVLVNDRVVPLHGCPVDALGRCTRDSFVKGLSFARSGGDWGECFA
# notes: as for B3
# Columns and labels:
# [1] = tested on: Aspergillus oryzae-derived phytase; settings: read-out: Michaelis constant (Km); cited from earlier work
# [2] = tested on: rice bran-derived phytase; settings: Agr. Biol. Chem., 53, 1475-1483; read-out: Michaelis constant (Km); cited from earlier work
# [3] = tested on: Bacillus natto-derived phytase; settings: read-out: Michaelis constant (Km); cited from earlier work
# [4] = tested on: Escherichia coli-derived phytase; settings: read-out: Michaelis constant (Km); cited from earlier work
# [5] = tested on: Aspergillus ficcum-derived phytase; settings: WO 91/05053; read-out: Michaelis constant (Km); cited from earlier work
# [6] = tested on: maize (Zea mays)-derived phytase; settings: read-out: Michaelis constant (Km); cited from earlier work
# [7] = tested on: Bacillus subtilis-derived phytase; settings: read-out: Michaelis constant (Km); cited from earlier work
# [8] = tested on: wheat bran-derived phytase; settings: Agr. Biol. Chem., 26, 794-803 (1962); read-out: Michaelis constant (Km); cited from earlier work
# [9] = substrate: O=P(O)(O)O[C@H]1[C@H](OP(=O)(O)O)[C@@H](OP(=O)(O)O)[C@H](OP(=O)(O)O)[C@@H](OP(=O)(O)O)[C@H]1OP(=O)(O)O; assay: Km of novel phytase from Aspergillus niger SK57 (standard assay, Lineweaver-Burk plot); assay type: biochemical; settings: other: sodium phytate 0.00625 to 1.25 mM, pH 5.5, 37° C.
# Method: (§1) 0.5 ml of 0.2 M acetate buffer, pH 5.5 (sodium acetate) containing 2.5 mM sodium phytate (Sigma) is maintained at 37° C. for 5 minutes, and 0.5 ml of an enzyme solution is added to initiate the reaction. After maintained at 37° C. for 10 minutes, 2 ml of a stop solution of enzyme reaction (i.e., mixture of 1:1:2 10 mM ammonium molybdate, 5 N sulfuric acid and acetone) is added to stop the reaction, and 0.1 ml of 1 M citric acid is further added and mixed. The absorbance of this solution is determined at 380 nm on a spectrophotometer (Hitachi U-2000). One unit of phytase activity is defined as the amount of enzyme allowing to release 1 μmol inorganic phosphorus for 1 minute at pH 5.5 at 37° C.
# (§2) The Km value of the novel phytase can be determined by the Lineweaver-Burk plot in which the activity of the novel phytase, as determined by the standard assay, is plotted at varying concentrations of the substrate.
# (§3) (1) Km value: The activity was determined according to the standard assay where the substrate concentration was varied in the range of 0.00625 to 1.25 mM. The results were graphted out in Lineweave-Burk plot so that Km values were determined.
# [10] = substrate: O=P(O)(O)O[C@H]1[C@H](OP(=O)(O)O)[C@@H](OP(=O)(O)O)[C@H](OP(=O)(O)O)[C@@H](OP(=O)(O)O)[C@H]1OP(=O)(O)O; assay: Km of novel phytase from transformant Aspergillus niger MH-PA1 (standard assay, Lineweaver-Burk plot); assay type: biochemical; settings: other: sodium phytate 0.00625 to 1.25 mM, pH 5.5, 37° C.
# Method: as §1, §2, §3
# [11] = substrate: O=P(O)(O)O[C@H]1[C@H](OP(=O)(O)O)[C@@H](OP(=O)(O)O)[C@H](OP(=O)(O)O)[C@@H](OP(=O)(O)O)[C@H]1OP(=O)(O)O; assay: Km of novel phytase from transformant Aspergillus nidulans M-PA1 (standard assay, Lineweaver-Burk plot); assay type: biochemical; settings: other: sodium phytate 0.00625 to 1.25 mM, pH 5.5, 37° C.
# Method: as §1, §2, §3
# [12] = Specific activity of purified phytase, standard assay; assay type: biochemical; settings: after purification; pH 5.5, 37° C.
# Method: as §1
# Ten g of the crude phytase powder obtained in Example 6-2 was dissolved in 50 ml of acetate buffer A [50 mM acetic acid/50 mM sodium acetate (pH 5.5)] and then desalted through an Ultrafilter (cut off molecular weight 10,000; Sartrius). The resulting enzyme solution was applied to a DIAION HPA-75 (Mitsubishi Corporation) column (5.6 cm×30 cm) previously equilibrated with acetate buffer A. After washed with acetate buffer A, novel phytase was eluted with acetate buffer B [50 mM acetic acid/50 mM sodium acetate (pH 4.8)] containing 0.3 M NaCl. […]
# [13] = Substrate specificity, standard assay; assay type: biochemical
# Method: as §1
# (7) Substrate specificity: The activity was determined by the standard assay method wherein the concentration of substrates was adjusted at 1 mM and 10 mM.
# [14] = substrate: O=P(O)(O)O[C@H]1[C@H](OP(=O)(O)O)[C@@H](OP(=O)(O)O)[C@H](OP(=O)(O)O)[C@@H](OP(=O)(O)O)[C@H]1OP(=O)(O)O; assay: Km of novel phytase from transformant Aspergillus oryzae MO-PG3 (standard assay, Lineweaver-Burk plot); assay type: biochemical; settings: other: sodium phytate 0.00625 to 1.25 mM, pH 5.5, 37° C.
# Method: as §1, §2, §3
molecule,measurement,setting,value
O=P(O)(O)O[C@H]1[C@H](OP(=O)(O)O)[C@@H](OP(=O)(O)O)[C@H](OP(=O)(O)O)[C@@H](OP(=O)(O)O)[C@H]1OP(=O)(O)O [phytic acid],Km,[1],330 µM
same,Km,[2],170 µM
same,Km,[3],500 µM
same,Km,[4],130 µM
same,Km,[5],250 µM
same,Km,[6],117 µM
same,Km,[7],150 µM
same,Km,[8],570 µM
B1,Km,[9],13 µM
B2,Km,[10],30 µM
B3,Km,[11],20 µM
B4,specific activity,[12],158 U/mg
same,Relative activity (100%),[13]; substrate ATP 1 mM,1.6%
same,Relative activity (100%),[13]; substrate ATP 10 mM,1.2%
same,Relative activity (100%),[13]; substrate D-glucose-6-phosphate 1 mM,0.45%
same,Relative activity (100%),[13]; substrate D-glucose-6-phosphate 10 mM,4.2%
same,Relative activity (100%),"[13]; substrate D-myo-inositol 1,4,5-tris-phosphate 1 mM",0.71%
same,Relative activity (100%),"[13]; substrate D-myo-inositol 1,4,5-tris-phosphate 10 mM",5.8%
same,Relative activity (100%),[13]; substrate fructose-6-phosphate 1 mM,0.15%
same,Relative activity (100%),[13]; substrate fructose-6-phosphate 10 mM,0.93%
same,Relative activity (100%),[13]; substrate glycerophosphoric acid 1 mM,0.11%
same,Relative activity (100%),[13]; substrate glycerophosphoric acid 10 mM,0.96%
same,Relative activity (100%),[13]; substrate p-nitrophenyl phosphate 1 mM,1.9%
same,Relative activity (100%),[13]; substrate p-nitrophenyl phosphate 10 mM,10%
same,Relative activity (100%),[13]; substrate phytic acid 1 mM,100%
same,substrate specificity (in words),[13]; substrates of Table 1 at 1 mM and 10 mM,"acted with low specificity on the substrates shown in Table 1, but it had less activity on substrates other than phytic acid"
B5,Km,[14],28 µM

# Reference: patent publication US6548282B2, “Phytase and gene encoding said phytase” (priority 1996, dated 2003)
